Results: patent US20140212423A1 (AbbVie / Abbott, published 2014)

Key:
[1] = biological target: T1, mouse Transferrin Receptor overexpressed on Hek 293 cells (mouse, UniProt Q62351 1-763); assay: cell-based MSD-ECL binding on Hek293 cells overexpressing mouse TfR
T1 construct: whole, on cells; also called Hek293/mTfR; 293/mTFR
Procedure: (§1) Meso-scale Discovery (MSD) Electrochemiluminescesnce (ECL) assays to screen for antibodies or DVDs that bind a desired target antigen expressed on the cell surface were performed as follows: Hek 293 cells overexpressing mouse Transferin Receptor were added onto MSD 96-well plates (MSD Cat# L11 XB-3, lot#2290-EA) which were blocked using blocking buffer (30% FBS Serum (Hyclone) in PBS) at 37° C. for 1 hr. After incubating at RT for 30 min with mild agitation, plates were washed with DPBS 3 times and Abs/DVDs (10,000 ng/ml) were added. After incubating for 1 hr at RT, plates were washed 3 times with DPBS and 25 ul of Goat anti human Sulfo TAG (MSD Cat# R32AC-, Lot# W001162) at 1 μg/ml is added. Following a 1 h incubation at RT for 1 hr, plates are washed and MSD read buffer is added before reading on MSD SECTOR Imager 6000. EC50 values are obtained using Xlfit4 software package

[2] = biological target: Repulsive guidance molecule A; assay: cell-based or functional assay
[3] = biological target: T1, mouse Transferrin Receptor …; assay: 293/mTFR cell-based assay
Procedure: as §1

T1 sequence (Q62351 whole entry): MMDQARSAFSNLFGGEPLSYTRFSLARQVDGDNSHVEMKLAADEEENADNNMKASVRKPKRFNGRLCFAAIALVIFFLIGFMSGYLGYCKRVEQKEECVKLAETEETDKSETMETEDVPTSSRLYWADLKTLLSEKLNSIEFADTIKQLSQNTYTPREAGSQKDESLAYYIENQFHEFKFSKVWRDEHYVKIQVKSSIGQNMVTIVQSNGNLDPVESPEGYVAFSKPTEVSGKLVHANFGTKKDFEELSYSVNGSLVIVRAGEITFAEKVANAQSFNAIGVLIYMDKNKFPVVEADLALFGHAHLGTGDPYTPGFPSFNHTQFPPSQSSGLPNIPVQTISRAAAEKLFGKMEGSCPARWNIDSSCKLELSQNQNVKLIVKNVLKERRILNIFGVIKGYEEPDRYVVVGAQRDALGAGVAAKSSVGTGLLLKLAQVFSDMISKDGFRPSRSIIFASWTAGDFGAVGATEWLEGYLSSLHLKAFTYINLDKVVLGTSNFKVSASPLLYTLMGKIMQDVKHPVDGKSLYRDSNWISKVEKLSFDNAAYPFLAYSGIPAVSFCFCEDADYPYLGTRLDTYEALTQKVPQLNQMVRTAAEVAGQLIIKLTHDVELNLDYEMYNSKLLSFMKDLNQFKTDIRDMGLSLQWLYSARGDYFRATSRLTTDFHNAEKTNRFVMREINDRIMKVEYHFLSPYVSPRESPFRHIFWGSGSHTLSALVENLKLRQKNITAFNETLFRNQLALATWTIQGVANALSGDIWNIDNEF

Binder	EC50 [1] [nM]	BMP Assay (EC50, nM) [2] [nM]	EC50 [3] [nM]
DVD1295 (bispecific antibody, DVD-Ig, outer AB043 (APP), inner AB221 (TfR), HG-short/LK-short; dual variable regions only; constant regions not assigned) VH: EVQLLESGGGLVQPGGSLRLSCAASGFTFSNYGMSWVRQAPGKGLEWVASIRSGGGRTYYSDNVKGRFTISRDNSKNTLYLQMNSLRAEDTAVYYCVRYDHYSGSSDYWGQGTLVTVSSASTKGPEVQLVESGGGLVQPGNSLTLSCVASGFTFSNYGMHWIRQAPKKGLEWIAMIYYDSSKMNYADTVKGRFTISRDNSKNTLYLEMNSLRSEDTAMYYCAVPTSHYVVDVWGQGVSVTVSS VL: DVVMTQSPLSLPVTPGEPASISCKSSQSLLDSDGKTYLNWLLQKPGQSPQRLIYLVSKLDSGVPDRFSGSGSGTDFTLKISRVEAEDVGVYYCWQGTHFPRTFGQGTKVEIKRTVAAPDIQMTQSPASLSASLEEIVTITCQASQDIGNWLAWYQQKPGKSPQLLIYGATSLADGVPSRFSGSRSGTQFSLKISRVQVEDIGIYYCLQAYNTPWTFGGGTKLELKR	3.7	–	–
DVD1294 (bispecific antibody, DVD-Ig, outer AB221 (TfR), inner AB043 (APP), HG-short/LK-short; the entries are the dual variable regions only; constant regions not assigned) VH: EVQLVESGGGLVQPGNSLTLSCVASGFTFSNYGMHWIRQAPKKGLEWIAMIYYDSSKMNYADTVKGRFTISRDNSKNTLYLEMNSLRSEDTAMYYCAVPTSHYVVDVWGQGVSVTVSSASTKGPEVQLLESGGGLVQPGGSLRLSCAASGFTFSNYGMSWVRQAPGKGLEWVASIRSGGGRTYYSDNVKGRFTISRDNSKNTLYLQMNSLRAEDTAVYYCVRYDHYSGSSDYWGQGTLVTVSS VL: DIQMTQSPASLSASLEEIVTITCQASQDIGNWLAWYQQKPGKSPQLLIYGATSLADGVPSRFSGSRSGTQFSLKISRVQVEDIGIYYCLQAYNTPWTFGGGTKLELKRTVAAPDVVMTQSPLSLPVTPGEPASISCKSSQSLLDSDGKTYLNWLLQKPGQSPQRLIYLVSKLDSGVPDRFSGSGSGTDFTLKISRVEAEDVGVYYCWQGTHFPRTFGQGTKVEIKR	0.11	–	–
TfR(AB405)-GS-RGMA(AE12-1) (bispecific antibody, DVD-Ig composed from its name; constant regions not assigned) VH: QVQLVQSGAEVKKPGASVKVSCKASGFTFSNYGMHWIRQAPGQGLEWIAMIYYDSSKMNYADTVKGRFTITRDNSTNTLYMELSSLRSEDTAVYYCAVPTSHYVVDVWGQGTTVTVSSGGGGSGGGGSEVQLVQSGAEVKKPGASVKVSCKASGYTFTSHGISWVRQAPGQGLDWMGWISPYSGNTNYAQKLQGRVTMTTDTSTSTAYMELSSLRSEDTAVYYCARVGSGPYYYMDVWGQGTLVTVSS VL: EIVMTQSPATLSVSPGERATLSCQASQDIGNWLAWYQQKPGQSPRLLIYGATSLADGVPARFSGSRSGTEFTLTISSLQSEDFAVYYCLQAYNTPWTFGGGTKVEIKRGGSGGGGSGQSALTQPRSVSGSPGQSVTISCTGTSSSVGDSIYVSWYQQHPGKAPKLMLYDVTKRPSGVPDRFSGSKSGNTASLTISGLQAEDEADYYCCSYAGTDTLFGGGTKVTVLG	–	3.12	28.1
AB405-SL-Aβ(3D6) (bispecific antibody, DVD-Ig composed from its name; constant regions not assigned; also called AB405-SL-Aβ(3D6) DVD-Ig) VH: QVQLVQSGAEVKKPGASVKVSCKASGFTFSNYGMHWIRQAPGQGLEWIAMIYYDSSKMNYADTVKGRFTITRDNSTNTLYMELSSLRSEDTAVYYCAVPTSHYVVDVWGQGTTVTVSSASTKGPEVQLLESGGGLVQPGGSLRLSCAASGFTFSNYGMSWVRQAPGKGLEWVASIRSGGGRTYYSDNVKGRFTISRDNSKNTLYLQMNSLRAEDTAVYYCVRYDHYSGSSDYWGQGTLVTVSS VL: EIVMTQSPATLSVSPGERATLSCQASQDIGNWLAWYQQKPGQSPRLLIYGATSLADGVPARFSGSRSGTEFTLTISSLQSEDFAVYYCLQAYNTPWTFGGGTKVEIKRTVAAPSVFIFPPDVVMTQSPLSLPVTPGEPASISCKSSQSLLDSDGKTYLNWLLQKPGQSPQRLIYLVSKLDSGVPDRFSGSGSGTDFTLKISRVEAEDVGVYYCWQGTHFPRTFGQGTKVEIKR	–	–	4.71
RGMA (AE12-1) (antibody, V domains shown) VH: EVQLVQSGAEVKKPGASVKVSCKASGYTFTSHGISWVRQAPGQGLDWMGWISPYSGNTNYAQKLQGRVTMTTDTSTSTAYMELSSLRSEDTAVYYCARVGSGPYYYMDVWGQGTLVTVSS VL: QSALTQPRSVSGSPGQSVTISCTGTSSSVGDSIYVSWYQQHPGKAPKLMLYDVTKRPSGVPDRFSGSKSGNTASLTISGLQAEDEADYYCCSYAGTDTLFGGGTKVTVLG	–	0.25	–
DVD2359 (bispecific antibody, DVD-Ig, outer AB043 (APP), inner AB402 (TfR), HG-short/LK-short; dual variable regions only; constant regions not assigned; also called Aβ(3D6)-SS-AB402 DVD2359; Aβ(3D6)-SS-AB402 DVD-Ig 2359) VH: EVQLLESGGGLVQPGGSLRLSCAASGFTFSNYGMSWVRQAPGKGLEWVASIRSGGGRTYYSDNVKGRFTISRDNSKNTLYLQMNSLRAEDTAVYYCVRYDHYSGSSDYWGQGTLVTVSSASTKGPEVQLVESGGGLVQPGGSLRLSCAASGFTFSNYGMHWIRQAPGKGLEWIAMIYYDSSKMNYADTVKGRFTISRDNAKNSLYLQMNSLRAEDTAVYYCAVPTSHYVVDVWGQGTTVTVSS VL: DVVMTQSPLSLPVTPGEPASISCKSSQSLLDSDGKTYLNWLLQKPGQSPQRLIYLVSKLDSGVPDRFSGSGSGTDFTLKISRVEAEDVGVYYCWQGTHFPRTFGQGTKVEIKRTVAAPAIQMTQSPSSLSASVGDRVTITCQASQDIGNWLAWYQQKPGKSPKLLIYGATSLADGVPSRFSGSRSGTDFTLTISSLQPEDFATYYCLQAYNTPWTFGGGTKVEIKR	12	–	12
DVD2361 (bispecific antibody) chain 1: EVQLLESGGGLVQPGGSLRLSCAASGFTFSNYGMSWVRQAPGKGLEWVASIRSGGGRTYYSDNVKGRFTISRDNSKNTLYLQMNSLRAEDTAVYYCVRYDHYSGSSDYWGQGTLVTVSSASTKGPEVQLVESGGGLVQPGGSLRLSCAASGFTFSNYGMHWIRQAPGKGLEWIAMIYYDSSKMNYADTVKGRFTISRDNAKNSLYLQMNSLRAEDTAVYYCAVPTSHYVVDVWGQGTTVTVSS chain 2: DVVMTQSPLSLPVTPGEPASISCKSSQSLLDSDGKTYLNWLLQKPGQSPQRLIYLVSKLDSGVPDRFSGSGSGTDFTLKISRVEAEDVGVYYCWQGTHFPRTFGQGTKVEIKRTVAAPEIVMTQSPATLSVSPGERATLSCQASQDIGNWLAWYQQKPGQSPRLLIYGATSLADGVPARFSGSRSGTEFTLTISSLQSEDFAVYYCLQAYNTPWTFGGGTKVEIKR	10.7	–	–
Aβ(3D6)-GS-AB403 (bispecific antibody, DVD-Ig composed from its name; Aβ(3D6) = AB043 read from DVD2359; constant regions not assigned; also called Aβ(3D6)-GS-AB403 DVD-Ig) VH: EVQLLESGGGLVQPGGSLRLSCAASGFTFSNYGMSWVRQAPGKGLEWVASIRSGGGRTYYSDNVKGRFTISRDNSKNTLYLQMNSLRAEDTAVYYCVRYDHYSGSSDYWGQGTLVTVSSGGGGSGGGGSEVQLVESGGGLVQPGGSLRLSCAASGFTFSNYGMHWIRQAPGKGLEWIAMIYYDSSKMNYADTVKGRFTISRDNAKNSLYLQMNSLRAEDTAVYYCAVPTSHYVVDVWGQGTTVTVSS VL: DVVMTQSPLSLPVTPGEPASISCKSSQSLLDSDGKTYLNWLLQKPGQSPQRLIYLVSKLDSGVPDRFSGSGSGTDFTLKISRVEAEDVGVYYCWQGTHFPRTFGQGTKVEIKRGGSGGGGSGEIVMTQSPATLSVSPGERATLSCQASQDIGNWLAWYQQKPGQSPRLLIYGATSLADGVPARFSGSRSGTEFTLTISSLQSEDFAVYYCLQAYNTPWTFGGGTKVEIKR	–	–	1.98

Results, then the binder that gave them:

EC50 [1] [nM]	BMP Assay (EC50, nM) [2] [nM]	EC50 [3] [nM]	Binder
–	0.73	4.41	TfR(AB405)-SL-RGMA(AE12-1) (bispecific antibody, DVD-Ig composed from its name; constant regions not assigned) VH: QVQLVQSGAEVKKPGASVKVSCKASGFTFSNYGMHWIRQAPGQGLEWIAMIYYDSSKMNYADTVKGRFTITRDNSTNTLYMELSSLRSEDTAVYYCAVPTSHYVVDVWGQGTTVTVSSASTKGPEVQLVQSGAEVKKPGASVKVSCKASGYTFTSHGISWVRQAPGQGLDWMGWISPYSGNTNYAQKLQGRVTMTTDTSTSTAYMELSSLRSEDTAVYYCARVGSGPYYYMDVWGQGTLVTVSS VL: EIVMTQSPATLSVSPGERATLSCQASQDIGNWLAWYQQKPGQSPRLLIYGATSLADGVPARFSGSRSGTEFTLTISSLQSEDFAVYYCLQAYNTPWTFGGGTKVEIKRTVAAPSVFIFPPQSALTQPRSVSGSPGQSVTISCTGTSSSVGDSIYVSWYQQHPGKAPKLMLYDVTKRPSGVPDRFSGSKSGNTASLTISGLQAEDEADYYCCSYAGTDTLFGGGTKVTVLG
–	0.701	4.44	TfR(AB405)-LL-RGMA(AE12-1) (bispecific antibody) chain 1: QVQLVQSGAEVKKPGASVKVSCKASGFTFSNYGMHWIRQAPGQGLEWIAMIYYDSSKMNYADTVKGRFTITRDNSTNTLYMELSSLRSEDTAVYYCAVPTSHYVVDVWGQGTTVTVSSASTKGPSVFPLAPEVQLVQSGAEVKKPGASVKVSCKASGYTFTSHGISWVRQAPGQGLDWMGWISPYSGNTNYAQKLQGRVTMTTDTSTSTAYMELSSLRSEDTAVYYCARVGSGPYYYMDVWGQGTLVTVSS chain 2: EIVMTQSPATLSVSPGERATLSCQASQDIGNWLAWYQQKPGQSPRLLIYGATSLADGVPARFSGSRSGTEFTLTISSLQSEDFAVYYCLQAYNTPWTFGGGTKVEIKRTVAAPSVFIFPPQSALTQPRSVSGSPGQSVTISCTGTSSSVGDSIYVSWYQQHPGKAPKLMLYDVTKRPSGVPDRFSGSKSGNTASLTISGLQAEDEADYYCCSYAGTDTLFGGGTKVTVLG
–	–	3.9	TfR(AB405)-LS-RGMA(AE12-1) (bispecific antibody) chain 1: QVQLVQSGAEVKKPGASVKVSCKASGFTFSNYGMHWIRQAPGQGLEWIAMIYYDSSKMNYADTVKGRFTITRDNSTNTLYMELSSLRSEDTAVYYCAVPTSHYVVDVWGQGTTVTVSSASTKGPSVFPLAPEVQLVQSGAEVKKPGASVKVSCKASGYTFTSHGISWVRQAPGQGLDWMGWISPYSGNTNYAQKLQGRVTMTTDTSTSTAYMELSSLRSEDTAVYYCARVGSGPYYYMDVWGQGTLVTVSS chain 2: EIVMTQSPATLSVSPGERATLSCQASQDIGNWLAWYQQKPGQSPRLLIYGATSLADGVPARFSGSRSGTEFTLTISSLQSEDFAVYYCLQAYNTPWTFGGGTKVEIKRTVAAPQSALTQPRSVSGSPGQSVTISCTGTSSSVGDSIYVSWYQQHPGKAPKLMLYDVTKRPSGVPDRFSGSKSGNTASLTISGLQAEDEADYYCCSYAGTDTLFGGGTKVTVLG
